56 substances from the supplement of paper PMC12042874 can be followed below.

± gives the uncertainty stated by the source.

The data set in a line: amyloid nucleation score (Sup35N fusion, yeast selection) (log enrichment); library NNK1; higher = more nucleation; inactive = no reads after selection. A digest of the protocol: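 Three technical output replicates were used for random libraries. Psi-negative yeast expressing peptides of 20 random codons fused to Sup35N were induced with 100 μM copper sulfate for 24 hours and grown 7 days at 30°C on medium lacking adenine and uracil, and input and output plasmid inserts were Illumina-sequenced, excluding sequences with under 100 input reads. The nucleation score is the DiMSum log enrichment of output over input reads, centred on the mode score of non-aggregating sequences.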
In the case of ILICKSVRVQYTLSKLW, the amyloid nucleation score came to 1.8 ± 0.17.

For the substance YFAVWSSRDTFRFYLILINP, the amyloid nucleation score is -0.427 ± 0.33.

Substance CVRNGLGCYSCTRTFFTVIV displayed an amyloid nucleation score of -0.409 ± 0.94.

Regarding TDSAVRDWTRR, the amyloid nucleation score came to 0.532 ± 0.79.

YVLSFYHQVGPALGFIRQWI came in with an amyloid nucleation score of -1.04 ± 0.69.

In turn, INFDRNFF gave an amyloid nucleation score of -0.54 ± 0.31.

The substance RKDRLTIGNRNL showed an amyloid nucleation score of 0.73 ± 0.69.

VRCLGWVDHERVRDLCIHSG displayed an amyloid nucleation score of -0.414 ± 0.31.

TGWLWYQHRWSDTWLPGTMR displayed an amyloid nucleation score of 2.04 ± 0.15.

Regarding VGLERSWGEAKAVNMQRHGS, the amyloid nucleation score was determined as 0.346 ± 0.81.

Turning to DQFCDMPTWVLVMYKSRDFL, the amyloid nucleation score stood at 0.862 ± 0.55.

GWTIKSSYYG gave an amyloid nucleation score of -0.906 ± 1.4.

On to ICSNGLLIMNVE, for which the amyloid nucleation score was determined as 1.13 ± 0.97.

Turning to DGSSLSPDPSLVWLKDM, the amyloid nucleation score was -0.823 ± 0.55.

As to KANACGRFTN, the amyloid nucleation score worked out at 3.72 ± 0.1.

Consider RTRFTDASMVWDANFMSNLY, for which the amyloid nucleation score entry was “inactive”.

As for CGADVNVWMTIWHYLFIDRG, the amyloid nucleation score result is “inactive”.

For QVRGTEVPVSIAVGLGTSRL, the amyloid nucleation score is 1.05 ± 0.66.

For the substance QIWTFRGRVLVGHTSREVVG, the amyloid nucleation score turned out to be 0.122 ± 0.24.

IFYYNRCWLTRYRVICLESI returned an amyloid nucleation score of -1.38 ± 0.51.

Substance QISRLKHYQTHVRMLLTLEG registered an amyloid nucleation score of -0.068 ± 0.42.

As for KDGFTSRAWPHMFKSLRSQL, the amyloid nucleation score amounted to 1.07 ± 0.63.

In turn, SRGITRQFESHTCAEHRCGS displayed an amyloid nucleation score of -0.252 ± 0.97.

For the substance ADYTQCRLYVM, the amyloid nucleation score is -0.132 ± 0.21.

In turn, TSCFGVWRHVLSRHSFRTSV came in with an amyloid nucleation score of 4.17 ± 0.13.

LFFHSKYMQRLKL gave an amyloid nucleation score of 0.183 ± 0.72.

Substance IGMLGLCGRIPMQAEGGSFR had an amyloid nucleation score of 0.712 ± 0.52.

For the substance TSFVSETGFTWVCVFLVAGT, the amyloid nucleation score is 0.616 ± 1.1.

In the case of NCIVFVSPASTKDCKWGAAS, the amyloid nucleation score is 1.66 ± 0.35.

As to SSCKWSSKPAHEFQVMTAPT, the amyloid nucleation score was -0.007 ± 0.65.

Turning to TFVLV, the amyloid nucleation score is 0.332 ± 0.74.

Consider SLGVYGQGSGWMLVVNVWEV, for which the amyloid nucleation score amounted to 1.97 ± 0.24.

In the case of FVLRTFQVDNSRQDTTNVST, the amyloid nucleation score came out at 0.309 ± 0.48.

Consider TTRCVFSPDNVDTDY, for which the amyloid nucleation score entry was “inactive”.

For SWTVGSMLSLDIWHRVYLTT, the amyloid nucleation score was -0.058 ± 0.44.

The substance SHCYSLGMLKVWLGQIKTFG registered an amyloid nucleation score of 1.8 ± 0.27.

Regarding GRSLY, the amyloid nucleation score is -0.413 ± 0.46.

Take PSRWIAVPSMEVKVL: the amyloid nucleation score came to 0.16 ± 1.1.

In turn, FKCKSDAPWPWLHSL registered an amyloid nucleation score of 1.37 ± 0.45.

AALTCLCCWAFFVISKNNYQ returned an amyloid nucleation score of 0.995 ± 0.58.

VLVRAWTLDCCLLFVMMVVS yielded an amyloid nucleation score of 0.558 ± 0.46.

Regarding RSGNVAQEMSMHPTWYEWS, the amyloid nucleation score was determined as 0.954 ± 0.31.

Substance CYIYPVFLGFMYCREEGNMG returned an amyloid nucleation score of 1.93 ± 0.37.

In the case of RIYTTWGHYDNDHQIYLFRG, the amyloid nucleation score is -0.601 ± 0.36.

TFVLYGCDRKVFRRNVVTAS gave an amyloid nucleation score of 0.316 ± 0.35.

On to LVILRGLGPDSCYYC, for which the amyloid nucleation score was -0.248 ± 0.86.

As to SGFIGS, the amyloid nucleation score was -1.33 ± 1.3.

As to TSIMRVTILLISGGRLDVFL, the amyloid nucleation score was -0.896 ± 1.

With RPGVGAVRSHSAGRMGGYGD, the amyloid nucleation score is -0.057 ± 1.7.

As to FCLNHHMVLYSIRRWNVFVY, the amyloid nucleation score was -2.16 ± 2.7.

With AQNSWGGILSVTAGQEFYCL, the amyloid nucleation score is -0.674 ± 1.7.

As to YSYNRSIASFFYFMSYCVSL, the amyloid nucleation score result was “inactive”.

In turn, SRVRHFVSFFTV gave an amyloid nucleation score of -0.333 ± 0.58.

Turning to RHVNEAESAGEGTGNYSRYS, the amyloid nucleation score was -0.206 ± 0.41.

For the substance CRKVITRVGSVTVTGGFYLI, the amyloid nucleation score is -0.374 ± 0.67.

Substance LISACDRSPSVIPI came in with an amyloid nucleation score of 0.252 ± 0.37.
